Assays:
[1] = molecular target: his-HCF[K919I, A933L], His-tagged myosin heavy chain fragment with coiled-coil stabilizing mutations (Mus musculus); assay: SEC
[2] = molecular target: his-HCF, His-tagged myosin heavy chain fragment K810-E934 (Mus musculus); assay: pull-down
[3] = molecular target: his-HCF[K919I, A933L], His-tagged myosin heavy chain fragment with coiled-coil stabilizing mutations (Mus musculus); assay: pull-down

With “his-HCF[K919I, A933L], His-tagged myosin heavy chain fragment with coiled-coil stabilizing mutations (domain or fragment)” the stoichiometry N [1] was 2.

B1: myosin regulatory light chain without His-tag (RLC), P97457 1-169 (natural protein)
chain: MPKCAKRRAGAEGSSNVFSMFDQTQIQEFKEAFTVIDQNRDGIIDKEDLRDTFAAMGRLNVKNEELDAMMKEASGPINFTVFLTMFGEKLKGADPEDVITGAFKVLDPEGKGTIKKQFLEELLTTQCDRFSQEEIKNMWAAFPPDVGGNVDYKNICYVITHGDAKDQE
modifications: not checked
Work on B1 yielded a stoichiometry N (RLC per his-HCF) [2] of 1 and a stoichiometry N (RLC per his-HCF[K919I, A933L]) [3] of 1.

— paper PMC6699511
